{"source": "patent US20240067734A1", "molecular_target": "di muNKG2D ECD Fc avi (murine)", "sequence (chain, as listed by the source limits assumed)": "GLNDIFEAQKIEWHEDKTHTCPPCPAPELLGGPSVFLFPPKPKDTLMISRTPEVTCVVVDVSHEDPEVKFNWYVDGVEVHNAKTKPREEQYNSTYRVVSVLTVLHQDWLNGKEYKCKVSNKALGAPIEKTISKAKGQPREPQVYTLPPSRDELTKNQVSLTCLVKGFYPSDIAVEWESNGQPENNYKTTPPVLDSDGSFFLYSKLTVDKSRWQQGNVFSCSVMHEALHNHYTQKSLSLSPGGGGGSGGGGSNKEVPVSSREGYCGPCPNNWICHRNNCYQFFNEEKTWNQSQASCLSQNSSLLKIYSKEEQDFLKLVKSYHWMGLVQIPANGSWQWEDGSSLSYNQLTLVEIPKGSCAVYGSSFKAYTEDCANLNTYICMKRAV", "assay": "ELISA; biotinylated antigen on streptavidin plate"}
{"binder": "anti-NKG2D antibody clone 001 (antibody, V domains shown) VH: QQLEQSGGGLVTPGGSLKLCCIGSGFDFNTYWMTWVRQAPGKGLEWIGCIHGGSSGSTYYASWVNGRFTLSRDIDQSTGCLQVNSLTAADTAMYYCARPGYRSWSKTFDLWGQGTMVTVSS VL: DIQMTQSPSSLSASVGDRVTITCRASQDISESLNWYQQKPGKAPKLLIYAASSLQSGVPSRFSGSGSGTDYTLTISSLQPEDFATYYCQQANSFPLTFGGGTKVEIK", "values": [{"measurement": "OD max", "value": 0.2, "unit": "OD"}]}
